Measured values reported in patent US20130344125A1, “DRUG DELIVERY DEVICE” (priority 2010, published 2013).
Where no end group is shown, it is not given here.

Experiment: Particle size and size distribution of nano-lipobubbles by dynamic light scattering (Zetasizer NanoZS)
Assay type: physicochemical
Settings: 25° C., deionized water, extruded through 0.22 μm filter
Method: Particle size and size distribution of synthetic peptide ligands, non-targeted nano-lipobubbles and targeted nano-lipobubbles were analyzed by a Zetasizer NanoZS instrument (Malvern Instruments (Pty) Ltd., Worcestershire, UK) at 25° C. Samples were suspended in deionized water, and then extruded through a 0.22 μm pore size polycarbonate membrane filter prior to analysis. Each analysis was performed in triplicate.
The physicochemical properties of the targeted nano-lipobubbles in terms of size distribution and zeta-potential were examined using the standard method of dynamic light scattering measurement (Zetasizer NanoZS, Malvern Instrument). […] The diameter of synthetic peptide ligand (KVLFLS 9 SEQ ID NO: 2)) alone was in the range of 366±41 nm. When 1 mol % of the linear synthetic peptide ligand incorporated or coupled with circular non-targeted nano-lipobubbles to generate targeted nano-lipobubbles, the size distribution increased from 129 nm to 270 nm when it was compared with non-targeted nano-lipobubbles. This confirms the successfully incorporation of the synthetic peptide ligand on the surface of non-targeted nano-lipobubbles. The overall zeta potential or surface charge of the targeted nano-lipobubbles was −29 mV.

## KVLFLS (KVLFLS-NH2) [Synthetic 6 amino acid peptide ligand from human apolipoprotein A-1 targeting the SEC receptor]
  diameter (size distribution): 366±41 nm
